Test results reported in patent US8158579B2, “Fusion protein of an exendin to modified transferrin” (BioRexis Pharmaceutical Corporation, priority 2006, dated 2012).

Molecular target: T1, rat GLP-1 receptor (Rattus norvegicus, UniProt P32301)
T1 construct: expressed in transfected cells; host or cells: CHO (CHO-GLP-1R)
T1 sequence (P32301 22-463): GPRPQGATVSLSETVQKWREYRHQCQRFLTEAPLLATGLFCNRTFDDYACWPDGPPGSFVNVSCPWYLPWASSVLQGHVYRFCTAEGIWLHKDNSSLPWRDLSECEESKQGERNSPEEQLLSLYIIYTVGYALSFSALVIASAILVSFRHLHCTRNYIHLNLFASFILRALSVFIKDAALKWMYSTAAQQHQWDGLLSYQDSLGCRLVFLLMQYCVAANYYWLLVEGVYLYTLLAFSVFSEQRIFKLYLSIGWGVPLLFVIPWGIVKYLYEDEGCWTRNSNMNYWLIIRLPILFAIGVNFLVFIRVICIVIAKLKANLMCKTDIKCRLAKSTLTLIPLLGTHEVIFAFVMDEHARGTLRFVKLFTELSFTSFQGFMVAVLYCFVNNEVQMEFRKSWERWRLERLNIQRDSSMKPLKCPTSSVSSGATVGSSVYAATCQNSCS
Assay: cAMP potency assay in CHO cells transfected with the rat GLP-1 receptor (CHO-GLP-1R)
Type: cell-based
Conditions: cAMP accumulation in CHO-GLP-1R cells
Method: 96-well tissue culture plates were seeded with CHO-GLP-1R cells and cultured overnight. The following day, the cells were rinsed with Krebs-Ringer buffer (KRB) and incubated in KRB containing the phosphodiesterase inhibitor 3-isobutyl-1-methylxanthine (IBMX, 2 mM) to inhibit intracellular enzymes that process cAMP. Serial dilutions of test compounds and controls were prepared in KRB/IBMX and triplicate wells of cells were inoculated with samples and controls. After incubation, individual sample lysates were then assayed to measure the increase in intracellular cAMP levels using a competition-based fluorescent immunoassay (CatchPoint® cAMP Fluorescent Assay Kit, Molecular Devices Corp., Sunnyvale, Calif.).

B1: pREX0659: exendin-4(1-30) fragment fused via (PEAPTD)2 linker to mTf (SEQ ID NO: 17) (protein)
chain: HGEGTFTSDLSKQMEEEAVRLFIEWLKNGGPEAPTDPEAPTDVPDKTVRWCAVSEHEATKCQSFRDHMKSVIPSDGPSVACVKKASYLDCIRAIAANEADAVTLDAGLVYDAYLAPNNLKPVVAEFYGSKEDPQTFYYAVAVVKKDSGFQMNQLRGKKSCHTGLGRSAGWNIPIGLLYCDLPEPRKPLEKAVANFFSGSCAPCADGTDFPQLCQLCPGCGCSTLNQYFGYSGAFKCLKDGAGDVAFVKHSTIFENLANKADRDQYELLCLDNTRKPVDEYKDCHLAQVPSHTVVARSMGGKEDLIWELLNQAQEHFGKDKSKEFQLFSSPHGKDLLFKDSAHGFLKVPPRMDAKMYLGYEYVTAIRNLREGTCPEAPTDECKPVKWCALSHHERLKCDEWSVNSVGKIECVSAETTEDCIAKIMNGEADAMSLDGGFVYIAGKCGLVPVLAENYNKADNCEDTPEAGYFAVAVVKKSASDLTWDNLKGKKSCHTAVGRTAGWNIPMGLLYNKINHCRFDEFFSEGCAPGSKKDSSLCKLCMGSGLNLCEPNNKEGYYGYTGAFRCLVEKGDVAFVKHQTVPQNTGGKNPDPWAKNLNEKDYELLCLDGTRKPVEEYANCHLARAPNHAVVTRKDKEACVHKILRQQQHLFGSNVADCSGNFCLFRSETKDLLFRDDTVCLAKLHDRNTYEKYLGEEYVKAVGNLRKCSTSSLLEACTFRRP
B1 showed an EC50 of 0.85 nM.

B2: pREX0658: exendin-4(1-31) fragment fused via (PEAPTD)2 linker to mTf (SEQ ID NO: 17) (protein)
chain: HGEGTFTSDLSKQMEEEAVRLFIEWLKNGGPPEAPTDPEAPTDVPDKTVRWCAVSEHEATKCQSFRDHMKSVIPSDGPSVACVKKASYLDCIRAIAANEADAVTLDAGLVYDAYLAPNNLKPVVAEFYGSKEDPQTFYYAVAVVKKDSGFQMNQLRGKKSCHTGLGRSAGWNIPIGLLYCDLPEPRKPLEKAVANFFSGSCAPCADGTDFPQLCQLCPGCGCSTLNQYFGYSGAFKCLKDGAGDVAFVKHSTIFENLANKADRDQYELLCLDNTRKPVDEYKDCHLAQVPSHTVVARSMGGKEDLIWELLNQAQEHFGKDKSKEFQLFSSPHGKDLLFKDSAHGFLKVPPRMDAKMYLGYEYVTAIRNLREGTCPEAPTDECKPVKWCALSHHERLKCDEWSVNSVGKIECVSAETTEDCIAKIMNGEADAMSLDGGFVYIAGKCGLVPVLAENYNKADNCEDTPEAGYFAVAVVKKSASDLTWDNLKGKKSCHTAVGRTAGWNIPMGLLYNKINHCRFDEFFSEGCAPGSKKDSSLCKLCMGSGLNLCEPNNKEGYYGYTGAFRCLVEKGDVAFVKHQTVPQNTGGKNPDPWAKNLNEKDYELLCLDGTRKPVEEYANCHLARAPNHAVVTRKDKEACVHKILRQQQHLFGSNVADCSGNFCLFRSETKDLLFRDDTVCLAKLHDRNTYEKYLGEEYVKAVGNLRKCSTSSLLEACTFRRP
In the case of B2, the EC50 is reported as 0.33 nM.
